Data published in US20080089892A1.

How the values were obtained:
[1] = target: biotin-labeled soluble FcRn (Fc neonatal receptor); test: ELISA, biotin-FcRn captured on Neutravidin plate, single-point IgG, pH 7.0
[2] = target: biotin-labeled soluble FcRn (Fc neonatal receptor); test: ELISA, biotin-FcRn captured on Neutravidin plate, single-point IgG, pH 6.0
[3] = target: human Fc gamma RI receptor (CD64), extracellular portion with C-terminal 6-his tag; test: ELISA: plate-coated human FcγRI (CD64) extracellular portion with 6-his tag; IgG titrated; bound IgG detected with anti-human kappa alkaline phosphatase conjugate, A560
human Fc gamma RI receptor (CD64), extracellular portion with C-terminal 6-his tag, sequence (chain, as listed by the source limits assumed): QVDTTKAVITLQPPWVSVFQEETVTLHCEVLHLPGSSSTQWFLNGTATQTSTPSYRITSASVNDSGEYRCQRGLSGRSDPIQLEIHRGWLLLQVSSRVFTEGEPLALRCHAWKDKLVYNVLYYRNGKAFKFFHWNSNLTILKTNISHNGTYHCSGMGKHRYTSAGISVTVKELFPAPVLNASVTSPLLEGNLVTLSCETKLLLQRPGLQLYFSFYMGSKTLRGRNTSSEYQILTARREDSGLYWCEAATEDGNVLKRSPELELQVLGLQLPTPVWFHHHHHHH

[4] = target: Human FcγRIIIa(158F) soluble extracellular domain with engineered 6-histidine tag (human) (UniProt P08637); test: KinExA, 7.5 nM IgG equilibrated with titrated soluble FcγRIIIa(158F), free IgG captured on receptor beads
UniProt P08637, sequence (P08637 other isoform, or with tags, fused parts or gaps): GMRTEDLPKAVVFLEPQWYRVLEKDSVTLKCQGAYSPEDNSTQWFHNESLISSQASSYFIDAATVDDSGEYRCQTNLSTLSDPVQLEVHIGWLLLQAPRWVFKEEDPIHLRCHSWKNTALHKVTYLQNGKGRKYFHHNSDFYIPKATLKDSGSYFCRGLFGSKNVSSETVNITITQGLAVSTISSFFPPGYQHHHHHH

| Substance | FcRn 7.0 (binding relative to parental) (% of parental (parental = 100)) [1] | FcRn 6.0 (binding relative to parental) (% of parental (parental = 100)) [2] | EC50 (read off the curve) [3] [µg/mL] | Kd [4] [nM] |
| --- | --- | --- | --- | --- |
| anti-CD20 IgG Fc variant T256M (antibody) | 82 | 72 | – | – |
| anti-CD20 IgG Fc variant H268D (antibody) | 84 | 87 | – | – |
| anti-CD20 IgG Fc variant H268E (antibody) | 81 | 90 | – | – |
| anti-CD20 IgG Fc variant S440Y (antibody) | 102 | 106 | – | – |
| anti-CD20 IgG Fc variant I332D (antibody) | 102 | 91 | – | – |
| anti-CD20 IgG Fc variant D280A (antibody) | 84 | 91 | – | – |
| anti-CD20 IgG combinatorial Fc variant (L256P, I332E) (antibody) | – | – | 1 | 21 |
| anti-CD20 IgG Fc variant T256P (antibody) | 121 | 132 | – | – |
| anti-CD20 IgG Fc variant A330K (antibody) | 99 | 104 | – | – |
| anti-CD20 IgG Fc variant L251F (antibody) | 100 | 102 | – | – |
| anti-CD20 IgG Fc variant P247H (antibody) | 73 | 79 | – | – |
| anti-CD20 IgG Fc variant A339T (antibody) | 109 | 115 | – | – |
| wild type (parental Fc) anti-CD20 IgG (antibody) | 100 | 100 | – | 387 |

Continued, values first:

| FcRn 7.0 (binding relative to parental) (% of parental (parental = 100)) [1] | FcRn 6.0 (binding relative to parental) (% of parental (parental = 100)) [2] | EC50 (read off the curve) [3] [µg/mL] | Kd [4] [nM] | Substance |
| --- | --- | --- | --- | --- |
| 97 | 99 | 2 | 52 | anti-CD20 IgG Fc variant I332E (AME-133: variable region 33 with the I332E Fc variant sequence) (antibody) |
| 93 | 103 | – | – | anti-CD20 IgG Fc variant D280K (antibody) |
| 74 | 89 | – | – | anti-CD20 IgG Fc variant P247I (antibody) |
| 97 | 109 | – | – | anti-CD20 IgG Fc variant I332K (antibody) |
| 78 | 92 | – | – | anti-CD20 IgG Fc variant P247L (antibody) |
| 101 | 77 | – | – | anti-CD20 IgG Fc variant A330R (antibody) |
| 93 | 122 | – | – | anti-CD20 IgG Fc variant A378D (antibody) |
| 92 | 97 | – | – | anti-CD20 IgG Fc variant I332R (antibody) |
